Assay [1] addresses endothelial protein C receptor (EPCR), extracellular domain, not biotinylated (human) (UniProt Q9UNN8). In words: AUC.
Assay [2] concerns the target endothelial protein C receptor (EPCR), extracellular domain, biotinylated on the N-terminal BAP tag (human) (UniProt Q9UNN8). In words: SPR. For orientation: Surface plasmon resonance follows binding to a sensor surface in real time, without labels.
Assay [3] deals with endothelial protein C receptor (EPCR), extracellular domain, not biotinylated (human) (UniProt Q9UNN8). In words: SEC-MALS; Superdex 75 analytical column, light scattering at 662 nm at 8 angles (Heleos 8), masses by the Zimm equation (ASTRA 6.1); HB3var03 CIDRα1.4, EPCR and their complex. A general note: Size exclusion chromatography separates by hydrodynamic size, large species first.

In assay [4] the target is endothelial protein C receptor, extracellular domain (human) (UniProt Q9UNN8). In words: small-angle X-ray scattering.

For the substance “CIDRα1.4 domain of PfEMP1 HB3var03, E. coli construct with domain boundaries for crystallisation (domain or fragment)”, the stoichiometry N (as a rule, the number of molecules, sites or subunits per partner or assembly) in assay [1] turned out to be 1. In assay [2], the Kd (commonly the equilibrium constant for the complex coming apart) was found to be 0.37 nM; the koff (in general, a measure of how fast the partners let go of each other) is 0.000197 s⁻¹; the kon (as a rule, the second-order rate constant of association) was determined as 532000 M⁻¹ s⁻¹. For the same substance, the stoichiometry N in assay [3] was 1.

In the case of “DD2var32 DBLα1.7-CIDRα1.4-DBLβ1 (the three membrane distal domains) (domain or fragment)”, the stoichiometry N in assay [4] was 1 PfEMP1:EPCR.

Source of the values: article PMC4297295, “Structural Conservation Despite Huge Sequence Diversity Allows EPCR Binding by the PfEMP1 Family Implicated in Severe Childhood Malaria” (Cell Host & Microbe, 2015).
